Our source for the koff and Kd values is paper PMC12495166, “Enhanced solid tumor cell targeting by a neoepitope-encoding oncolytic measles virus combined with CAR therapy” (Molecular Therapy Oncology, 2025).

The koff is the rate constant with which the complex falls apart. A lower koff goes with a long-lived complex. The Kd is the concentration at which binding is half-saturated. High values mean weaker binding, low ones tighter binding.

Test [1] has as its target T1, MICB-derived octapeptide VLQSQRTD (soluble) (human).
T1 peptide: VLQSQRTD
In words: SPR. (In general: SPR reads the build-up and loss of mass on a sensor chip optically.)

Test [2] has as its target T2, MICB-derived octapeptide VLQSQRTD (soluble) (Homo sapiens).
T2 construct: stalk octapeptide starting at position V302 and ending N-terminally of the annotated transmembrane domain; also called immunization peptide
T2 chain: VLQSQRTD
The test can be described thus: SPR; antibodies (2 μg/mL) immobilised on an IgG-capture sensor chip; peptides as analyte, 0.5-100 nM octapeptide or 1-200 μM 13-aa peptide; single-cycle kinetics; HBS-EP pH 7.4, 30 μL/min; Sierra SPR-24 Pro. The settings on record: both partners purified.

B1: monoclonal antibody clone 12F7 (antibody, V domains shown)
VH: QVQLQQSGAELVRPGTSVKVSCKASGYAFTNYLIEWIKQRPGQGLEWIGVINPRSGGTNYNEKFKGKATLTADKSSITVYMQLSSLTSDDSAIYFCVRSESYGDYGAWFAYWGQGTLVTVSA
VL: DIVLTQSPASLAVSLGQRATISCRASESVDSYGNSFMHWYQQKPGQPPKLLIDRASNRESGIPARFSGSGSRTDFTLTINPVEADDVATYYCQQSNEDPFTFGSGTKLEIK
notes: variable heavy domain of clone 12F7; constant region of the murine heavy chain; variable light domain of clone 12F7; constant region of the murine light chain; also called 12-F7-C12-E3; mAb 12F7; source: mouse hybridoma (ProteoGenix), purified by protein A/G
B1 registered a koff in test [1] of 0.00536 s⁻¹. The molecule further had a Kd in test [2] of 3.85 nM.
